This test concerns the target S protein of live SARS-CoV-2 WA-1/2020 isolate (SARS-CoV-2, UniProt P0DTC2 14-1273). Put plainly: cell-based or functional assay.

B1: S1D7270LALA antibody (STI-2020) (antibody, V domains shown)
VH: EVQLVESGGGLIQPGGSLRLSCAASGFTVSSNYMSWVRQAPGKGLEWVSIIYPGGSTEYADSVKGRFTISRDNSRNTLYLQMNSLRAEDTAVYYCARELGYYGMDVWGQGTTVTVSS
VL: DIQMTQSPSSVSASVGDRVTITCRASQGISTWLVWYQQKPGKAPNLLIYGASSLQSGVPSRFSGSGSGTDFTLTISSLQPEDFATYYCQQANAYPYTFGQGTKLEIK
B1: the “IC50, inhibition of cytopathic effect (CPE) on Vero E6 cells, live virus” value was 0.055 µg/mL.

Values taken from US20230416343A1 (SORRENTO THERAPEUTICS, published 2023).
